Source: article PMC10784468 (Nature Communications, 2024)
Read-outs that look alike come from different tables or passages of the source. Positions of bridges follow the written chain, without caps; N, C: chain ends. Residues, ends and D or L forms follow the SMILES beside them. *: point of attachment. X1 = O=C(O)c1ccc(-c2c3nc(c(-c4ccc(C(=O)O)cc4)c4ccc([nH]4)c(-c4ccc(C(=O)*)cc4)c4nc(c(-c5ccc(C(=O)O)cc5)c5ccc2[nH]5)C=C4)C=C3)cc1; X2 = O=C(O)C/C(=C/C(=O)*)C(=O)O

How the values were obtained:
[1] = Morphology and size by TEM; type: physicochemical; details: PBS 0.01 M, pH 6.5, 1 h, 40 μM
Method: Nano-ZS 3600 (Malvern Instruments, UK) was used to measure the size distribution of the peptide-porphyrin conjugate solutions. The conjugate solutions (40 μM) were incubated at pH 7.4 or pH 6.5 before measurements. An average value was determined by three repeated measurements at 25 °C for each sample. Besides, transmission electron microscopy (TEM, Tecnai G2 20 S-TWIN) was conducted to observe the morphology and diameters of conjugates in aqueous solution, The conjugates (50 μL, 40 μM) were kept in PB solution at pH 7.4 or pH 6.5, which were dropped on copper meshes. After 5 min, unnecessary liquid was removed and the uranyl acetate solution (10 μL) was dropped on this copper mesh to stain the samples for 10 min. Finally, the copper meshes were washed with deionized water, and dried at room temperature for observation.

[2] = Cy-labeled
Method: Firstly, A density of 5 × 10^6 EJ cell resuspended in Matrigel were subcutaneously injected into the right hind of mice to construct EJ xenograft model. When the tumor volume reached about 200–400 mm^3, the mice were administrated with Cy labeled Gi-F ([…]), Cy labeled Gi-F-SA ([…]) and Cy labeled Gi-F-CAA ([…]) by intravenous injection for in vivo fluorescence imaging at different timepoints (10 min, 20 min, 40 min, 1 h, 2 h, 4 h, 8 h, 12 h and 24 h) with in vivo imaging system (IVIS). Meanwhile, the EJ xenograft mice were sacrificed for collecting major organs and tumors to evaluate the biodistribution of Gi-F-CAA.

EJ cells = test: Intracellular LPO fluorescence imaging (C11-BODIPY); type: cell-based; details: pH 6.5, 40 μM, 8 h
Method: Initially, EJ cells (5 × 10^5) were cultured in confocal dish with a CO2 incubator overnight at 37 °C. […] Next, EJ cells were collected and washed with PBS for 3 times.

[3] = ex vivo, i.v., EJ xenograft mice
[4] = ex vivo, EJ xenograft mice, i.v. 0.5 mg/kg, mice 1
[5] = ex vivo, EJ xenograft mice, i.v. 0.5 mg/kg, mice 2
[6] = ex vivo, EJ xenograft mice, i.v. 0.5 mg/kg, mice 3
[7] = ex vivo, EJ xenograft mice, i.v. 1 mg/kg, mice 1
[8] = ex vivo, EJ xenograft mice, i.v. 1 mg/kg, mice 2
[9] = ex vivo, EJ xenograft mice, i.v. 1 mg/kg, mice 3
[10] = ex vivo, EJ xenograft mice, i.v. 2 mg/kg, mice 1
[11] = ex vivo, EJ xenograft mice, i.v. 2 mg/kg, mice 2
[12] = ex vivo, EJ xenograft mice, i.v. 2 mg/kg, mice 3
[13] = ex vivo, EJ xenograft mice, i.v. 4 mg/kg, mice 1
[14] = ex vivo, EJ xenograft mice, i.v. 4 mg/kg, mice 2
[15] = ex vivo, EJ xenograft mice, i.v. 4 mg/kg, mice 3
[16] = ex vivo, EJ xenograft mice, i.v. 8 mg/kg, mice 1
[17] = ex vivo, EJ xenograft mice, i.v. 8 mg/kg, mice 2
[18] = ex vivo, EJ xenograft mice, i.v. 8 mg/kg, mice 3

## CC(C)C[C@H](NC(=O)c1ccc(-c2c3nc(c(-c4ccc(C(=O)O)cc4)c4ccc([nH]4)c(-c4ccc(C(=O)O)cc4)c4nc(c(-c5ccc(C(=O)O)cc5)c5ccc2[nH]5)C=C4)C=C3)cc1)C(=O)N[C@@H](CCCCNC(=O)/C=C(/CC(=O)O)C(=O)O)C(=O)N[C@@H](CC(C)C)C(=O)N[C@@H](CCCCN)C(=O)N[C@@H](CC(C)C)C(=O)N[C@@H](CCCCNC(=O)/C=C(/CC(=O)O)C(=O)O)C(=O)NCC(=O)N[C@@H](C)C(=O)N[C@H]1CSSC[C@@H](C(=O)N2CCC[C@H]2C(=O)N[C@H](C(=O)O)C(C)C)NC(=O)[C@@H]2CCCN2C(=O)[C@H](Cc2ccc(O)cc2)NC(=O)[C@H](CC(C)C)NC(=O)[C@@H]2CCCN2C(=O)[C@H](CC(C)C)NC(=O)[C@H](Cc2c[nH]c3ccccc23)NC(=O)[C@H](CC(N)=O)NC1=O [Gi-F-CAA] (X1-LK(X2)LKLK(X2)GACNWLPLYPCPV-OH; disulfide 9-17; C-terminus assumed)
[1]
  particle size (TEM): 57 ± 9 nm
[2]; 8 mg/kg i.v., versus Gi-F and Gi-F-SA groups
  ex vivo fluorescence signal at the tumor: strong fluorescence signal
[2]; [3]
  fluorescence intensity at tumor relative to kidney: ~ 2.4 fold
  fluorescence intensity at tumor relative to liver: ~ 1.9 fold
[2]; [4]
  kidney Average FI: 1.89E+07 x10^8 p/cm2/s
  liver Average FI: 2.16E+07 x10^8 p/cm2/s
  tumor Average FI: 1.51E+07 x10^8 p/cm2/s
[2]; [5]
  kidney Average FI: 1.50E+07 x10^8 p/cm2/s
  liver Average FI: 1.85E+07 x10^8 p/cm2/s
  tumor Average FI: 1.10E+07 x10^8 p/cm2/s
[2]; [6]
  kidney Average FI: 1.59E+07 x10^8 p/cm2/s
  liver Average FI: 1.52E+07 x10^8 p/cm2/s
  tumor Average FI: 1.37E+07 x10^8 p/cm2/s
[2]; [7]
  kidney Average FI: 3.76E+07 x10^8 p/cm2/s
  liver Average FI: 4.34E+07 x10^8 p/cm2/s
  tumor Average FI: 2.76E+07 x10^8 p/cm2/s
[2]; [8]
  kidney Average FI: 3.14E+07 x10^8 p/cm2/s
  liver Average FI: 3.92E+07 x10^8 p/cm2/s
  tumor Average FI: 2.99E+07 x10^8 p/cm2/s
[2]; [9]
  kidney Average FI: 3.06E+07 x10^8 p/cm2/s
  liver Average FI: 3.19E+07 x10^8 p/cm2/s
  tumor Average FI: 3.48E+07 x10^8 p/cm2/s
[2]; [10]
  kidney Average FI: 5.61E+07 x10^8 p/cm2/s
  liver Average FI: 6.33E+07 x10^8 p/cm2/s
  tumor Average FI: 4.80E+07 x10^8 p/cm2/s
[2]; [11]
  kidney Average FI: 4.60E+07 x10^8 p/cm2/s
  liver Average FI: 5.75E+07 x10^8 p/cm2/s
  tumor Average FI: 3.97E+07 x10^8 p/cm2/s
[2]; [12]
  kidney Average FI: 4.92E+07 x10^8 p/cm2/s
  liver Average FI: 4.67E+07 x10^8 p/cm2/s
  tumor Average FI: 3.88E+07 x10^8 p/cm2/s
[2]; [13]
  kidney Average FI: 7.41E+07 x10^8 p/cm2/s
  liver Average FI: 9.04E+07 x10^8 p/cm2/s
  tumor Average FI: 9.54E+07 x10^8 p/cm2/s
[2]; [14]
  kidney Average FI: 6.02E+07 x10^8 p/cm2/s
  liver Average FI: 7.81E+07 x10^8 p/cm2/s
  tumor Average FI: 8.23E+07 x10^8 p/cm2/s
[2]; [15]
  kidney Average FI: 6.88E+07 x10^8 p/cm2/s
  liver Average FI: 6.42E+07 x10^8 p/cm2/s
  tumor Average FI: 9.16E+07 x10^8 p/cm2/s
[2]; [16]
  kidney Average FI: 8.52E+07 x10^8 p/cm2/s
  liver Average FI: 1.07E+08 x10^8 p/cm2/s
  tumor Average FI: 2.09E+08 x10^8 p/cm2/s
[2]; [17]
  kidney Average FI: 6.80E+07 x10^8 p/cm2/s
  liver Average FI: 9.09E+07 x10^8 p/cm2/s
  tumor Average FI: 1.62E+08 x10^8 p/cm2/s
[2]; [18]
  kidney Average FI: 7.55E+07 x10^8 p/cm2/s
  liver Average FI: 8.19E+07 x10^8 p/cm2/s
  tumor Average FI: 1.71E+08 x10^8 p/cm2/s
EJ cells
  intracellular LPO (BODIPY 581/591 C11): extensive accumulation of LPO
